The target of this experiment is T1, Recombinant human CD137 protein (human, UniProt Q07011 24-186).
T1 construct: also called CD137 receptor; 4-1BB
Kind of experiment: competition ELISA against biotinylated CD137 ligand on coated human CD137.

B1: αCD137-AB1 (antibody, human IgG4 S228P, kappa, V domains shown)
VH: EVQLVESGGGLVQPGGSLRLSCAASGFSLSTGGVGVGWIRQAPGKGLEWLALIDWADDKYYSPSLKSRLTISRDNSKNTLYLQLNSLRAEDTAVYYCARGGSDTVIGDWFAYWGQGTLVTVSS
VL: DIQLTQSPSSLSASVGDRVTITCRASQSIGSYLAWYQQKPGKAPKLLIYDASNLETGVPSRFSGSGSGTDFTLTISSLQPEDFATYYCQQGYYLWTFGQGTKVEIKR
notes: also called AG10131; Hit ID 5365
In the case of B1, the binding result was “binds”.

(Values after patent US20200377608A1 (ADAGENE, published 2020).)
